# In US11325966:
# Key:
# Assay in all cases: cell-based or functional assay
# [1] = biological target: HIV-1 Env of pseudovirus R3265.c06 (HIV-1)
# [2] = biological target: HIV-1 Env of pseudovirus 6480.v4.c25 (HIV-1)
# [3] = biological target: HIV-1 Env of pseudovirus ZM214M.PL15 (HIV-1)
# [4] = biological target: HIV-1 Env of pseudovirus R2184.c04 (HIV-1)
# [5] = biological target: HIV-1 Env of pseudovirus 263-8 (HIV-1)
# [6] = biological target: HIV-1 Env of pseudovirus T251-18 (HIV-1)
# [7] = biological target: HIV-1 Env of pseudovirus SC422661.8 (HIV-1)
# [8] = biological target: HIV-1 Env of pseudovirus Ce703010054_2A2 (HIV-1)
# [9] = biological target: HIV-1 Env of pseudovirus T278-50 (HIV-1)
# [10] = biological target: HIV-1 Env of pseudovirus Du422.1 (HIV-1)
# [11] = biological target: HIV-1 Env of pseudovirus 6535.3 (HIV-1)
# [12] = biological target: HIV-1 Env of pseudovirus CNE17 (HIV-1)
# [13] = biological target: HIV-1 Env of pseudovirus CNE30 (HIV-1)
# [14] = biological target: HIV-1 Env of pseudovirus A07412M1.vrc12 (HIV-1)
# [15] = biological target: HIV-1 Env of pseudovirus 6540.v4.c1 (HIV-1)
# [16] = biological target: HIV-1 Env of pseudovirus 3301.v1.c24 (HIV-1)
# [17] = biological target: HIV-1 Env of pseudovirus 6244_13_B5_4576 (HIV-1)
# [18] = biological target: HIV-1 Env of pseudovirus Ce0393_C3 (HIV-1)
# [19] = biological target: HIV-1 Env of pseudovirus BF1266.431a (HIV-1)
# [20] = biological target: HIV-1 Env of pseudovirus T255-34 (HIV-1)
# [21] = biological target: HIV-1 Env of pseudovirus 3817.v2.c59 (HIV-1)
# [22] = biological target: HIV-1 Env of pseudovirus ZM53M.PB12 (HIV-1)
# [23] = biological target: HIV-1 Env of pseudovirus Du156.12 (HIV-1)
# [24] = biological target: HIV-1 Env of pseudovirus X1193_c1 (HIV-1)
# [25] = biological target: HIV-1 Env of pseudovirus HIV-001428-2.42 (HIV-1)
# [26] = biological target: HIV-1 Env of pseudovirus P1981_C5_3 (HIV-1)
# [27] = biological target: HIV-1 Env of pseudovirus CNE20 (HIV-1)
# [28] = biological target: HIV-1 Env of pseudovirus ZM197M.PB7 (HIV-1)
# [29] = biological target: HIV-1 Env of pseudovirus CNE19 (HIV-1)
# [30] = biological target: HIV-1 Env of pseudovirus CNE5 (HIV-1)
# [31] = biological target: HIV-1 Env of pseudovirus WITO4160.33 (HIV-1)
# [32] = biological target: HIV-1 Env of pseudovirus 246F C1G (HIV-1)
# [33] = biological target: HIV-1 Env of pseudovirus Q769.d22 (HIV-1)
# [34] = biological target: HIV-1 Env of pseudovirus HIV-16845-2.22 (HIV-1)
# [35] = biological target: HIV-1 Env of pseudovirus CAP210.2.00.E8 (HIV-1)
# [36] = biological target: HIV-1 Env of pseudovirus 0815.v3.c3 (HIV-1)
# [37] = biological target: HIV-1 Env of pseudovirus CAAN5342.A2 (HIV-1)
# [38] = biological target: HIV-1 Env of pseudovirus 89-F1_2_25 (HIV-1)
# [39] = biological target: HIV-1 Env of pseudovirus 620345.c01 (HIV-1)
# [40] = biological target: HIV-1 Env of pseudovirus 1056_10_TA11_1826 (HIV-1)
substance,measurement,setting,value
PGT121 (antibody),IC50 in TZM-bl assay,[1],> 10 µg/mL
same,IC80 in TZM-bl assay,[1],> 10 µg/mL
same,IC50 in TZM-bl assay,[2],0.008 µg/mL
same,IC50 in TZM-bl assay,[3],0.288 µg/mL
same,IC80 in TZM-bl assay,[3],2.46 µg/mL
same,IC50 in TZM-bl assay,[4],> 10 µg/mL
same,IC80 in TZM-bl assay,[4],> 10 µg/mL
same,IC50 in TZM-bl assay,[5],0.647 µg/mL
same,IC80 in TZM-bl assay,[5],4.68 µg/mL
same,IC50 in TZM-bl assay,[6],5.18 µg/mL
same,IC80 in TZM-bl assay,[6],> 10 µg/mL
same,IC50 in TZM-bl assay,[7],0.079 µg/mL
same,IC80 in TZM-bl assay,[7],0.373 µg/mL
same,IC50 in TZM-bl assay,[8],> 10 µg/mL
same,IC80 in TZM-bl assay,[8],> 10 µg/mL
same,IC50 in TZM-bl assay,[9],> 10 µg/mL
same,IC80 in TZM-bl assay,[9],> 10 µg/mL
same,IC50 in TZM-bl assay,[10],0.017 µg/mL
same,IC80 in TZM-bl assay,[10],0.088 µg/mL
same,IC50 in TZM-bl assay,[11],0.003 µg/mL
same,IC80 in TZM-bl assay,[11],0.01 µg/mL
same,IC50 in TZM-bl assay,[12],3.96 µg/mL
same,IC80 in TZM-bl assay,[12],> 10 µg/mL
same,IC50 in TZM-bl assay,[13],0.088 µg/mL
same,IC80 in TZM-bl assay,[13],0.288 µg/mL
same,IC50 in TZM-bl assay,[14],0.034 µg/mL
same,IC80 in TZM-bl assay,[14],0.255 µg/mL
same,IC50 in TZM-bl assay,[15],> 10 µg/mL
same,IC80 in TZM-bl assay,[15],> 10 µg/mL
same,IC50 in TZM-bl assay,[16],0.013 µg/mL
same,IC80 in TZM-bl assay,[16],0.041 µg/mL
same,IC50 in TZM-bl assay,[17],0.172 µg/mL
same,IC80 in TZM-bl assay,[17],1.47 µg/mL
same,IC50 in TZM-bl assay,[18],> 10 µg/mL
same,IC80 in TZM-bl assay,[18],> 10 µg/mL
same,IC50 in TZM-bl assay,[19],> 10 µg/mL
same,IC80 in TZM-bl assay,[19],> 10 µg/mL
same,IC50 in TZM-bl assay,[20],2.63 µg/mL
same,IC80 in TZM-bl assay,[20],> 10 µg/mL
same,IC50 in TZM-bl assay,[21],> 10 µg/mL
same,IC80 in TZM-bl assay,[21],> 10 µg/mL
same,IC50 in TZM-bl assay,[22],0.001 µg/mL
same,IC80 in TZM-bl assay,[22],0.005 µg/mL
same,IC50 in TZM-bl assay,[23],0.006 µg/mL
same,IC80 in TZM-bl assay,[23],0.019 µg/mL
same,IC80 in TZM-bl assay,[24],0.088 µg/mL
same,IC50 in TZM-bl assay,[25],0.02 µg/mL
same,IC80 in TZM-bl assay,[25],0.126 µg/mL
same,IC50 in TZM-bl assay,[26],0.002 µg/mL
same,IC80 in TZM-bl assay,[26],0.009 µg/mL
same,IC50 in TZM-bl assay,[27],0.003 µg/mL
same,IC80 in TZM-bl assay,[27],0.006 µg/mL
same,IC50 in TZM-bl assay,[28],> 10 µg/mL
same,IC80 in TZM-bl assay,[28],> 10 µg/mL
same,IC80 in TZM-bl assay,[29],0.083 µg/mL
same,IC50 in TZM-bl assay,[30],> 10 µg/mL
same,IC80 in TZM-bl assay,[30],> 10 µg/mL
same,IC50 in TZM-bl assay,[31],0.301 µg/mL
same,IC80 in TZM-bl assay,[31],3.2 µg/mL
same,IC50 in TZM-bl assay,[32],0.082 µg/mL
same,IC80 in TZM-bl assay,[32],0.363 µg/mL
same,IC50 in TZM-bl assay,[33],> 10 µg/mL
same,IC80 in TZM-bl assay,[33],> 10 µg/mL
same,IC50 in TZM-bl assay,[34],8.51 µg/mL
same,IC80 in TZM-bl assay,[34],> 10 µg/mL
same,IC50 in TZM-bl assay,[35],> 10 µg/mL
same,IC80 in TZM-bl assay,[35],> 10 µg/mL
same,IC50 in TZM-bl assay,[36],0.017 µg/mL
same,IC80 in TZM-bl assay,[36],0.085 µg/mL
same,IC50 in TZM-bl assay,[37],0.008 µg/mL
same,IC80 in TZM-bl assay,[37],0.026 µg/mL
same,IC50 in TZM-bl assay,[38],> 10 µg/mL
same,IC80 in TZM-bl assay,[38],> 10 µg/mL
same,IC50 in TZM-bl assay,[39],> 10 µg/mL
same,IC80 in TZM-bl assay,[39],> 10 µg/mL
same,IC50 in TZM-bl assay,[40],0.034 µg/mL
same,IC80 in TZM-bl assay,[40],0.148 µg/mL
